Positions count from the first letter of the chain named.
B1: 365_G12 (antibody, V domains shown)
VH: EVQLLESGGGLVQPGGSLRLSCAASGFTFSSYGMNWVRQAPGKGLEWVAGINYNSGYTSYADSVKGRFTISRDNSKNTLYLQMNSLRAEDTAVYYCARSATWHDTALDYWGQGTLVTVSS
VL: DIQMTQSPSSLSASVGDRVTITCRASQSILSYVNWYQQKPGKAPKLVIYAATSRASGVPSRFSGSGSGTDFTLTISSLQPEDFATYYCQQSYSNPLTFGGGTKVEIK
B2: 365_B09 (antibody, V domains shown)
VH: B1 VH with S30D, G33S, T58K, A106H
VL: B1 VL with S31R, V33L, V47L, R54L, A55H, S93D
B3: 373_C09 (antibody, V domains shown)
VH: B1 VH with S30D, G33S, T58K, A106H
VL: B1 VL with S31T, V33L, S93E, N94L
B4: 375_C12 (antibody, V domains shown)
VH: B1 VH with G33S, G50N, S55G, S59G, A106H
VL: B1 VL with S31T, V33L, V47L, S93D, N94L
B5: 369_C10 (antibody, V domains shown)
VH: B1 VH with G33S, G50N, S55G
VL: B1 VL with L30V, S31T, V33L, V47L, R54L, A55H, Y92D, N94L
B6: 371_F05 (antibody, V domains shown)
VH: B1 VH with G33S, T58K, A106H
VL: B1 VL with V33L, V47L, A55H, S93E
B7: 369_E10 (antibody, V domains shown)
VH: B1 VH with G33S, A49S, G50N, S55G, T58K
VL: B1 VL with S93D, N94L
B8: 365_F07 (antibody, V domains shown)
VH: B1 VH with G33S, A49S, G50N, S55G, T58K
VL: B1 VL with S93D, N94L
B9: 374_C08 (antibody, V domains shown)
VH: B1 VH with S30D, A49S, T58K
VL: B1 VL with V47L, A51V, S93D, N94S
B10: 369_A05 (antibody, V domains shown)
VH: B1 VH with G33S, S55G, S59G, A106H
VL: B1 VL with S31T, S93E, N94S
B11: 372_F07 (antibody, V domains shown)
VH: B1 VH with S30D, S31D, G33S, T58K, S59G, A106H
VL: B1 VL with S31T, V33L, S93E, N94L
B12: 367_C03 (antibody, V domains shown)
VH: B1 VH with G33S, G50N, S55G, S59G
VL: B1 VL with A51T, S93E
B13: 373_E06 (antibody, V domains shown)
VH: B1 VH with S30D, G33S, T58K, A106H
VL: B1 VL with S31R, V33L, V47L, R54L, A55H, S93D
B14: 376_B07 (antibody, V domains shown)
VH: B1 VH with S30D, G33S, A49S
VL: B1 VL with V33L, A50Y, A51V, T52S, S53N, S93D
B15: 368_H01 (antibody, V domains shown)
VH: B1 VH with G33S, T58K, A106H
VL: B1 VL with V33L, V47L, A51T, R54L, S93D
B16: 365_A07 (antibody, V domains shown)
VH: B1 VH with T58K, S59G, A106H
VL: B1 VL with L30V, V33L, V47L, S93N, N94L
B17: 369_G07 (antibody, V domains shown)
VH: B1 VH with G33S, S55G, A106H
VL: B1 VL with S31T, S93D
B18: 370_H03 (antibody, V domains shown)
VH: B1 VH with S30D, G33S, T58K, S59G, A106H
VL: B1 VL with S31T, V33L, V47L, R54L, S93D, N94T
B19: 367_G07 (antibody, V domains shown)
VH: B1 VH with S30D, G33S, G50N, S55G, S59G, A106H
VL: B1 VL with S31T, V47L, S93D
B20: 373_E03 (antibody, V domains shown)
VH: B1 VH with S30D, A49S, G50N, S55G, S59G
VL: B1 VL with S93D, N94L
B21: 366_B04 (antibody, V domains shown)
VH: B1 VH with S30D, G33S, S55G, T58K, S59G, A106H
VL: B1 VL with S31T, A55H, S93D, N94T
B22: 367_A09 (antibody, V domains shown)
VH: B1 VH with S30D, S55G, A106H
VL: B1 VL with A55H, S93D, N94T
B23: 374_D02 (antibody, V domains shown)
VH: B1 VH with S30D, G33S, A106H
VL: B1 VL with L30S, S31T, V47L, A51V, R54L, S93D, N94S
B24: 376_A06 (antibody, V domains shown)
VH: B1 VH with S30D, G33S, A49S
VL: B1 VL with V33L, A50Y, A51V, T52S, S53N, S93D
B25: 365_D05 (antibody, V domains shown)
VH: B1 VH with S30D, G33S, S55G, A106H
VL: B1 VL with S31T, V47L, S93N, N94S
B26: 373_E04 (antibody, V domains shown)
VH: B1 VH with S30D, G33S, S55G, A106H
VL: B1 VL with S31T, V47L, S93N, N94S
B27: 376_C11 (antibody, V domains shown)
VH: B1 VH with S30D, G33S, T58K, A106H
VL: B1 VL with S31T, V33L, S93D
B28: 375_B04 (antibody, V domains shown)
VH: B1 VH with S30D, G33S, G50N, S55G, S59G, A106H
VL: B1 VL with S31T, V33L, V47L, S93D
B29: 365_F08 (antibody, V domains shown)
VH: B1 VH with S30D, S31D, G50N, S55G, A106H
VL: B1 VL with V47L, A55H, N94L
B30: 370_E07 (antibody, V domains shown)
VH: B1 VH with S30D, G33S, G50N, S55G, S59G, A106H
VL: B1 VL with S31T, V33L, V47L, S93D
B31: 370_F08 (antibody, V domains shown)
VH: B1 VH with S30D, G33S, S55G, A106H
VL: B1 VL with L30I, V47L, A55H, S93N, N94L
B32: 369_F07 (antibody, V domains shown)
VH: B1 VH with S30D, G33S, S55G, T58K, A106H
VL: B1 VL with S93E, N94S
B33: 371_G03 (antibody, V domains shown)
VH: B1 VH with G50N, S55G, T58K, S59G, A106H
VL: B1 VL with L30V, S31T, R54L, S93N, N94L
B34: 369_A10 (antibody, V domains shown)
VH: B1 VH with S30D, G33S, S59G, A106H
VL: B1 VL with V33L, V47L, S93E, N94L
B35: 367_H07 (antibody, V domains shown)
VH: B1 VH with G33S, G50N, S55G, S59G
VL: B1 VL with A51T, S93E
B36: 374_C11 (antibody, V domains shown)
VH: B1 VH with G33S, T58K, S59G, A106H
VL: B1 VL with S31T, V33L, V47L, S93E, N94S
B37: 374_C05 (antibody, V domains shown)
VH: B1 VH with S30D, G33S, T58K, A106H
VL: B1 VL with L30I, S31R, V33L, S93D
B38: 376_B06 (antibody, V domains shown)
VH: B1 VH with G33S, T58K, S59G, A106H
VL: B1 VL with S31T, V33L, V47L, S93D, N94L
B39: 374_C04 (antibody, V domains shown)
VH: B1 VH with G33S, T58K, A106H
VL: B1 VL with S31T, V33L, V47L, T52S, R54L, A55Q, S93E, N94L
B40: 370_A09 (antibody, V domains shown)
VH: B1 VH with G33S, S55G, S59G, A106H
VL: B1 VL with S31T, V33L, S93D, N94T
B41: 373_G05 (antibody, V domains shown)
VH: B1 VH with G33S, S55G, A106H
VL: B1 VL with V33L, V47L, R54L, S93E, N94L
B42: 376_B01 (antibody, V domains shown)
VH: B1 VH with S30D, G33S, S55G, A106H
VL: B1 VL with S31T, S93N, N94L
B43: 365_A10 (antibody, V domains shown)
VH: B1 VH with N35H, A106H
VL: B1 VL with S31T, V33L, A51V, R54L, S93D, N94S
B44: 366_A03 (antibody, V domains shown)
VH: B1 VH with S30D, G33S, T58K, S59G, A106H
VL: B1 VL with L30S, V33L, V47L, R54L
B45: 375_G07 (antibody, V domains shown)
VH: B1 VH with S30D, G33S, A106H
VL: B1 VL with V33L, R54L, S93D, N94L
B46: 365_B03 (antibody, V domains shown)
VH: B1 VH with G33S, S55G, S59G, A106H
VL: B1 VL with L30V, V33L, V47L, S93E
B47: 373_H10 (antibody, V domains shown)
VH: B1 VH with G33S, S55G, S59G, A106H
VL: B1 VL with V47L, N94L
B48: 373_B03 (antibody, V domains shown)
VH: B1 VH with G33S, T58K, A106H
VL: B1 VL with S31T, V33L, R54L, S93D

Biological target: human Fc (human)
Test: ELISA; negative control

optical density [OD] | Binder
0.556 | B1
0.272 | B2
0.17 | B3
0.197 | B4
0.32 | B5
0.297 | B6
0.412 | B7
0.331 | B8
0.178 | B9
0.588 | B10
0.296 | B11
0.275 | B12
0.187 | B13
0.234 | B14
0.374 | B15
0.284 | B16
0.32 | B17
0.381 | B18
0.295 | B19
0.194 | B20
0.331 | B21
0.259 | B22
0.204 | B23
0.262 | B24

optical density [OD] | Binder
0.357 | B25
0.251 | B26
0.23 | B27
0.19 | B28
0.437 | B29
0.379 | B30
0.495 | B31
0.335 | B32
0.359 | B33
0.348 | B34
0.297 | B35
0.471 | B36
0.175 | B37
0.222 | B38
0.201 | B39
0.361 | B40
0.273 | B41
0.308 | B42
0.293 | B43
0.303 | B44
0.178 | B45
0.444 | B46
0.2 | B47
0.18 | B48

Reference: US20210380703A1
